Assay results reported in patent US20110039770A1, “INHIBITORS OF PROTEIN KINASE C ISOFORMS AND USES THEREOF” (PHARMAGAP INC., priority 2005, published 2011).
Where no end group is shown, it is not given here.

Assays:
PKC-ζ, purified isoform [1] = target: PKC-ζ, purified isoform (UniProt Q05513); test: competition ELISA on coated purified PKC-ζ vs anti-PKC ζ antibody; PRE 200 µM
PKC-ζ, purified isoform [2] = target: PKC-ζ, purified isoform (UniProt Q05513); test: competition ELISA on coated purified PKC-ζ vs anti-PKC ζ antibody; PRE 100 µM
PKC-ζ, purified isoform [3] = target: PKC-ζ, purified isoform (UniProt Q05513); test: competition ELISA on coated purified PKC-ζ vs anti-PKC ζ antibody; PRE 50 µM
[4] = target: PKC-δ, purified isoform, Q05655; test: cell-based or functional assay
[5] = target: PKC-ζ, purified isoform, Q05513; test: cell-based or functional assay
PKC-δ, Q05655 = test: cell-based or functional assay
[6] = target: PKC-β (endogenous, IMR-32 lysate) (human) (UniProt P05771); test: WB competition Protocol B, IMR-32 extract, vs anti-PKC-β Ab; 300 µg peptide
[7] = target: PKC-β (endogenous, IMR-32 lysate) (human) (UniProt P05771); test: WB competition Protocol B, IMR-32 extract, vs anti-PKC-β Ab; 200 µg peptide
[8] = target: PKC-β (endogenous, IMR-32 lysate) (human) (UniProt P05771); test: WB competition Protocol B, IMR-32 extract, vs anti-PKC-β Ab; 100 µg peptide
[9] = target: PKC-β (endogenous, IMR-32 lysate) (human) (UniProt P05771); test: WB competition Protocol A, IMR-32 lysate, vs anti-PKC-β Ab; 300 µg peptide
[10] = target: PKC-β (endogenous, IMR-32 lysate) (human) (UniProt P05771); test: WB competition Protocol A, IMR-32 lysate, vs anti-PKC-β Ab; 75 µg peptide
[11] = target: PKC-βI (purified isoform) (Homo sapiens (Human)), P05771; test: competitive ELISA, coated purified PKC-βI, vs anti-PKC βI (SC-209); PRE 200 µM; conditions: remark: other sources report otherwise
[12] = target: PKC-βI (purified isoform) (Homo sapiens (Human)), P05771; test: competitive ELISA, coated purified PKC-βI, vs anti-PKC βI (SC-209); PRE 50 µM; conditions: remark: other sources report otherwise
[13] = target: PKC-βI (purified isoform) (Homo sapiens (Human)), P05771; test: competitive ELISA, coated purified PKC-βI, vs anti-PKC βI (SC-209); PRE 100 µM; conditions: remark: other sources report otherwise
[14] = target: PKC-βI (purified isoform) (Homo sapiens (Human)) (UniProt P05771); test: competitive ELISA, coated purified PKC-βI, vs anti-PKC βI (SC-209); PRE 50 µM
[15] = target: PKC-βI (purified isoform) (Homo sapiens (Human)) (UniProt P05771); test: competitive ELISA, coated purified PKC-βI, vs anti-PKC βI (SC-209); PRE 200 µM
[16] = target: PKC-βI (purified isoform) (Homo sapiens (Human)) (UniProt P05771); test: competitive ELISA, coated purified PKC-βI, vs anti-PKC βI (SC-209); PRE 100 µM
[17] = target: PKC-β (endogenous, IMR-32 lysate) (human) (UniProt P05771); test: WB competition Protocol A, IMR-32 lysate, vs anti-PKC-β Ab; 600 µg peptide

Sequence of PKC-β (endogenous, IMR-32 lysate) (human) (P05771 2-671): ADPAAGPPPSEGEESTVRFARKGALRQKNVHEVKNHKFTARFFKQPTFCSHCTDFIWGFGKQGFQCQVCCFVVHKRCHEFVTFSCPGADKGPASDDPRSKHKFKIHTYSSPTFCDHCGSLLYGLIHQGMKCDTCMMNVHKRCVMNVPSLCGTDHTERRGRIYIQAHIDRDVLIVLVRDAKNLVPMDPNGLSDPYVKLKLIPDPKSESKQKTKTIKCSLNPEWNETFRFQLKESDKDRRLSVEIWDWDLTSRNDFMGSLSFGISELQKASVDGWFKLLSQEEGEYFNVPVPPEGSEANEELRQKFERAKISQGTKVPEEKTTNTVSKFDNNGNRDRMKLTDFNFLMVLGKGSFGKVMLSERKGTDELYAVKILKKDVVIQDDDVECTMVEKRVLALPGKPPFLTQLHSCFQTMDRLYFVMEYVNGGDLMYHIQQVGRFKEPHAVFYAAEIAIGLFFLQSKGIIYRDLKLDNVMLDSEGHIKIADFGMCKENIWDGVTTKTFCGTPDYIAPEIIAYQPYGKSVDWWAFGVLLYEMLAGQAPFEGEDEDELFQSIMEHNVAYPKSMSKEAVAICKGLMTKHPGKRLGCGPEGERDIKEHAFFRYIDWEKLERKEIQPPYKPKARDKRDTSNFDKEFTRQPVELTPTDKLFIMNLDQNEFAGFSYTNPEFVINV
Sequence of PKC-βI (purified isoform) (Homo sapiens (Human)), P05771 (P05771 2-671 limits assumed): as the sequence (P05771 2-671) above
Sequence of PKC-βI (purified isoform) (Homo sapiens (Human)) (P05771 2-671 limits assumed): as the sequence (P05771 2-671) above
Sequence of PKC-δ, purified isoform, Q05655 (Q05655 whole entry, stated change not applied, canonical isoform): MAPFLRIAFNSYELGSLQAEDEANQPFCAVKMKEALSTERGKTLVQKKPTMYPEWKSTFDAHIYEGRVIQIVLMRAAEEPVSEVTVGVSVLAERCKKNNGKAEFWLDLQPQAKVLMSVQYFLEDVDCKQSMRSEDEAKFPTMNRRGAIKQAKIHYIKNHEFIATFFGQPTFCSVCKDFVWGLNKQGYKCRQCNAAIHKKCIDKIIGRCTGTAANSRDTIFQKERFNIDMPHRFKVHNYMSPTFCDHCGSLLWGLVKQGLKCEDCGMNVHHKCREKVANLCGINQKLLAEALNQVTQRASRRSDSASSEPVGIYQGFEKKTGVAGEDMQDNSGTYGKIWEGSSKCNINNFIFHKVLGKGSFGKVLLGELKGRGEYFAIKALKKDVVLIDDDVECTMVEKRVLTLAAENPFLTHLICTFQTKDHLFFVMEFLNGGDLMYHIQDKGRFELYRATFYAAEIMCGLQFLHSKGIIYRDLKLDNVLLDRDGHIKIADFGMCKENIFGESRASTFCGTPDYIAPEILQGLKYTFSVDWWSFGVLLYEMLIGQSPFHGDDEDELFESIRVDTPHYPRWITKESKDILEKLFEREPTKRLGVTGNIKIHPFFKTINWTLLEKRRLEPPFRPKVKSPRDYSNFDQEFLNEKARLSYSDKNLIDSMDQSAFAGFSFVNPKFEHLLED
Sequence of PKC-δ, Q05655 (Q05655 whole entry, stated change not applied): as the sequence (Q05655 whole entry, stated change not applied, canonical isoform) above
Sequence of PKC-ζ, purified isoform (Q05513 whole entry, canonical isoform): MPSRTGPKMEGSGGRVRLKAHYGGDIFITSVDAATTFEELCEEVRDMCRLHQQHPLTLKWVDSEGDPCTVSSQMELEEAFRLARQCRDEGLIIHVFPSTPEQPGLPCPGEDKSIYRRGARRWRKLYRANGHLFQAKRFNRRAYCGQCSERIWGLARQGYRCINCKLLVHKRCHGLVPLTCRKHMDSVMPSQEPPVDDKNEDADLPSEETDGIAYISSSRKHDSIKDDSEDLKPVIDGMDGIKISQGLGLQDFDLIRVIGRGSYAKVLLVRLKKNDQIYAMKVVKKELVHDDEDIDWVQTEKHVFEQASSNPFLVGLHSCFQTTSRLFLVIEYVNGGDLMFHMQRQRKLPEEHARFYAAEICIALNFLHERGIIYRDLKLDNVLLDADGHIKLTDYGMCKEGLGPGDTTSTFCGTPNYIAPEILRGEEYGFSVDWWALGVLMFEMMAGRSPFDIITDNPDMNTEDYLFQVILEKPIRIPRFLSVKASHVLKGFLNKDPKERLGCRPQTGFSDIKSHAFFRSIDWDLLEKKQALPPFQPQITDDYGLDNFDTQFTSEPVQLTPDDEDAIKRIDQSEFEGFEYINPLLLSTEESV
Sequence of PKC-ζ, purified isoform, Q05513 (Q05513 whole entry, canonical isoform): as above

Ac-KDAQNLI-NH2 [PRE 12]
relative binding capacity (PKC-ζ, purified isoform [1]): 0.33%
relative binding capacity (PKC-ζ, purified isoform [2]): 8.77%
relative binding capacity (PKC-ζ, purified isoform [3]): 4.2%

FRRK(adenine PNA)FRL [compound PKI 3]
% Inhibition of PKC activity at 150 µM [4]: 32%
% Inhibition of PKC activity at 300 µM [4]: 41%
% Inhibition of PKC activity at 600 µM [4]: 70%
% Inhibition of PKC activity at 150 µM [5]: 37%
% Inhibition of PKC activity at 300 µM [5]: 40%
% Inhibition of PKC activity at 600 µM [5]: 56%

Ac-FRRCFRLGGGGGGGAKGIQEVKGGDAQNLIGISI-NH2 [Compound TIM 18 (PRE 3 and PKI 4)]
% Inhibition of kinase activity (Kinase-Glo), compound at 5.0 µM (PKC-δ, Q05655): 56.3%
% Inhibition of kinase activity (Kinase-Glo), compound at 30.0 µM (PKC-δ, Q05655): 85.1%

Ac-FRRCFRLGGGGGGGRRKKGGKDFVVKR-NH2 [Compound TIM 20 (PRE 1 and PKI 4)]
% Inhibition of kinase activity (Kinase-Glo), compound at 5.0 µM (PKC-δ, Q05655): 46%
% Inhibition of kinase activity (Kinase-Glo), compound at 30.0 µM (PKC-δ, Q05655): 45.4%

KDAQNLIGISL-NH2 [PRE 2]
Band Intensity [6]: 0
Inhibition (%) [6]: 100%
Relative Intensity (%) [6]: 0%
Band Intensity [7]: 0
Inhibition (%) [7]: 100%
Relative Intensity (%) [7]: 0%
Band Intensity [8]: 0.0322
Inhibition (%) [8]: 54.7%
Relative Intensity (%) [8]: 45.3%
Band Intensity [9]: 0.403
Inhibition (%) [9]: 65.3%
Relative Intensity (%) [9]: 34.7%
Band Intensity [10]: 0.8
Inhibition (%) [10]: 31%
Relative Intensity (%) [10]: 69%

RRKKGGKDFVVKR [PRE 1]
Band Intensity [9]: 0.528
Inhibition (%) [9]: 54.5%
Relative Intensity (%) [9]: 45.5%
Band Intensity [10]: 0.825
Inhibition (%) [10]: 28.9%
Relative Intensity (%) [10]: 71.1%

ILEDKGGDAQNLIGISI [PRE 8]
relative binding capacity (100-%n, DMSO subtracted) [11]: 0%
relative binding capacity (100-%n, DMSO subtracted) [12]: 0%
relative binding capacity (100-%n, DMSO subtracted) [13]: 0%

FRRCFRL [compound PKI 4]
% Inhibition of PKC activity at 150 µM [4]: 90%
% Inhibition of PKC activity at 300 µM [4]: 90%
% Inhibition of PKC activity at 600 µM [4]: 95%
% Inhibition of PKC activity at 150 µM [5]: 60%
% Inhibition of PKC activity at 300 µM [5]: 60%
% Inhibition of PKC activity at 600 µM [5]: 58%

Ac-KDANQLIGISI-NH2 [PRE 6]
relative binding capacity (PKC-ζ, purified isoform [1]): 0%
relative binding capacity (PKC-ζ, purified isoform [2]): 0%
relative binding capacity (PKC-ζ, purified isoform [3]): 0%

Ac-RDAQNLI-NH2 [PRE 13]
relative binding capacity (PKC-ζ, purified isoform [1]): 4.29%
relative binding capacity (PKC-ζ, purified isoform [2]): 0%
relative binding capacity (PKC-ζ, purified isoform [3]): 0%

Ac-AKGIQEVKGGKDAQNLIGISI-NH2 [PRE 5]
relative binding capacity (PKC-ζ, purified isoform [1]): 0%
relative binding capacity (PKC-ζ, purified isoform [2]): 0%
relative binding capacity (PKC-ζ, purified isoform [3]): 0%

Ac-RDAQNLIGISI-NH2 [PRE 11]
relative binding capacity (PKC-ζ, purified isoform [1]): 0%
relative binding capacity (PKC-ζ, purified isoform [2]): 0%
relative binding capacity (PKC-ζ, purified isoform [3]): 0%

Ac-ISIGILNQADK-NH2 [PRE 10]
relative binding capacity (PKC-ζ, purified isoform [1]): 0%
relative binding capacity (PKC-ζ, purified isoform [2]): 0%
relative binding capacity (PKC-ζ, purified isoform [3]): 0%

Ac-ISIGILQNADK-NH2 [PRE 7]
relative binding capacity (PKC-ζ, purified isoform [1]): 1.54%
relative binding capacity (100-%n, DMSO subtracted) [14]: 2.1%
relative binding capacity (PKC-ζ, purified isoform [2]): 0%
relative binding capacity (PKC-ζ, purified isoform [3]): 1.83%
relative binding capacity (100-%n, DMSO subtracted) [15]: 0%
relative binding capacity (100-%n, DMSO subtracted) [16]: 0%

Ac-AKGIQEVKGGDAQNLIGISI-NH2 [PRE 3]
relative binding capacity (PKC-ζ, purified isoform [1]): 29.1%
Band Intensity [6]: 0
Inhibition (%) [6]: 100%
Relative Intensity (%) [6]: 0%
Band Intensity [7]: 0
Inhibition (%) [7]: 100%
Relative Intensity (%) [7]: 0%
Band Intensity [17]: 1.85
Inhibition (%) [17]: 0%
Relative Intensity (%) [17]: 99.6%
relative binding capacity (PKC-ζ, purified isoform [2]): 23.9%
Band Intensity [8]: 0
Inhibition (%) [8]: 100%
Relative Intensity (%) [8]: 0%
relative binding capacity (PKC-ζ, purified isoform [3]): 14%
Band Intensity [9]: 1.9
Inhibition (%) [9]: 0%
Relative Intensity (%) [9]: 102%
Band Intensity [10]: 1.9
Inhibition (%) [10]: 0%
Relative Intensity (%) [10]: 102%

Ac-KDAQNLIGISI-NH2 [PRE 4]
relative binding capacity (PKC-ζ, purified isoform [1]): 5.85%
relative binding capacity (PKC-ζ, purified isoform [2]): 0%
relative binding capacity (PKC-ζ, purified isoform [3]): 0%
